Measurements: US7906119 (Human Genome Sciences, dated 2011)

Target: PA heptamer (Bacillus anthracis, UniProt P13423 197-764)
Test: BIAcore; PA heptamer immobilized on CM5 chip, IgG1 in solution

PA heptamer, sequence (P13423 197-764): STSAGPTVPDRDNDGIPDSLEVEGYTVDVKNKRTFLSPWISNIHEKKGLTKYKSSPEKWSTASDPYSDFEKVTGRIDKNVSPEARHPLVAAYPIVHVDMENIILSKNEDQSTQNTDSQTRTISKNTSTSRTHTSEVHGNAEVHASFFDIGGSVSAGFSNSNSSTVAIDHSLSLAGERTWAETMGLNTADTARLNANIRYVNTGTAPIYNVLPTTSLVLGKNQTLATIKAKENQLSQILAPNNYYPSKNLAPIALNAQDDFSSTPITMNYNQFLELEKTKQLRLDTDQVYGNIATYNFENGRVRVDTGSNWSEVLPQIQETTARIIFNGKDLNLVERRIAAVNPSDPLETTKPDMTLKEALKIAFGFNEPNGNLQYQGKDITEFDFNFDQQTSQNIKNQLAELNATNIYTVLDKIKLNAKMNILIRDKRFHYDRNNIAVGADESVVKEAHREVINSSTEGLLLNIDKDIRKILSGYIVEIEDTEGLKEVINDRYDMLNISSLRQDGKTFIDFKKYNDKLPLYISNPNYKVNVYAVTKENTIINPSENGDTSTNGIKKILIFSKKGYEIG

B1: PWD0283 (IgG1 format) (antibody, V domains shown)
VH: EVQLLESGGGLVQPGGSLRLSCAASGFTFSSYATSWVRQAPGKGLEWVSAISGSGGSTYYADSVKGRFTISRDNSKNTLYLQMNSLRAEDTAVYYCARVGGAIRFDSWGRGTLVTVSS
VL: SYELTQPPSASETPGQRVSISCSGGTSNIGSNTINWYQQVPGTAPKLLIYFNNRRPAGVPARFSASKSGTSASLTISGLQSEDEADYYCSAWDDSLSGVVFGGGTKLTVLG
- Kd: 0.187 nM
- koff: 0.000426 s⁻¹
- kon: 2.28e+06 M⁻¹ s⁻¹
